According to paper PMC2361330 (British Journal of Cancer, 2006):

Molecular target: Vascular endothelial growth factor receptor 1 (human (endogenous in HT29), UniProt P17948 27-1338)
Experiment: cell-based or functional assay

Vascular endothelial growth factor receptor 1, sequence (P17948 27-1338): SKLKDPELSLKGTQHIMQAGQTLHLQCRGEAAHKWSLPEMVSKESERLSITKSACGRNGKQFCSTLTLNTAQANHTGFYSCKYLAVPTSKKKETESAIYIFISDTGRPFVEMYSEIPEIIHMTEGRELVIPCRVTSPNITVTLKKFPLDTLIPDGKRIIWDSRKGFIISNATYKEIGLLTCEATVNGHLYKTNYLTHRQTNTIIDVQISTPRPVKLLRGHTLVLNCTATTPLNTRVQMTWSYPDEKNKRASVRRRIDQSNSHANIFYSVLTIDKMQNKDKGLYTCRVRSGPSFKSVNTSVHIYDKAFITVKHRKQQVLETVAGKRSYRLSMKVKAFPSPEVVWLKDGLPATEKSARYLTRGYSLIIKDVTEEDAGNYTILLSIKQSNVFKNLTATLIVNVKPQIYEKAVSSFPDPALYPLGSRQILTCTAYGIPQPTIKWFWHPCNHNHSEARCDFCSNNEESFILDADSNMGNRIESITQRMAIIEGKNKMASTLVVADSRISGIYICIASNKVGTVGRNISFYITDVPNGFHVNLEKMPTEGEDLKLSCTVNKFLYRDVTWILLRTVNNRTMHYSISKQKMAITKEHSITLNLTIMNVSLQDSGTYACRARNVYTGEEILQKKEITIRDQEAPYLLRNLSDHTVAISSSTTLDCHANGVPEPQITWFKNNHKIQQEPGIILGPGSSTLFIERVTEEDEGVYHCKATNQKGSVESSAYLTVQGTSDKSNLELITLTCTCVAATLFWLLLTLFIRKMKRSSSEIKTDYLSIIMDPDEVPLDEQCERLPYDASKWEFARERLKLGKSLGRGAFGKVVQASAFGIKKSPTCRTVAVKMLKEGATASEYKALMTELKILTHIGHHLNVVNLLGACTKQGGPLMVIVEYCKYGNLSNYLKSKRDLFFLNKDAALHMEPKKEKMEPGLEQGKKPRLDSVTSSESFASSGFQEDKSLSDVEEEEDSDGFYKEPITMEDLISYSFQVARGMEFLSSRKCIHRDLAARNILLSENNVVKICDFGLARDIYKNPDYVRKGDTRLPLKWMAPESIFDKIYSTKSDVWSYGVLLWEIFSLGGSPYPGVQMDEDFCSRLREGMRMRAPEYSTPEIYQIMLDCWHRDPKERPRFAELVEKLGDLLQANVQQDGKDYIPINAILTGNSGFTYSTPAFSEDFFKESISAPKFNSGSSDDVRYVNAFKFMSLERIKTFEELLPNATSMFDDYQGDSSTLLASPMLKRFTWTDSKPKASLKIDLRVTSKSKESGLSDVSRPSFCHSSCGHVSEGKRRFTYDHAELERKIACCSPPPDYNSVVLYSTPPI

Yes kinase activity by immune complex kinase assay in HT29 cells treated with VEGF-A (10 ng ml^−1) for 0-15 min: ~2.5 fold
B1: Yes (enzyme)
chain: not shown
